Experimental data from patent publication US20260242478A1 (published 2026).
Where no end group is shown, it is not given here.

B1: Phage-610 (peptide)
peptide: YCDGHLPQYKAKCL
notes: Clonal phage of the Peptide-87 library, tested as crude phage supernatant; not shown: pIII of the bacteriophage to which the peptide is fused
B2: Phage-612 (peptide)
peptide: YCDGHSIEYRWKCL
notes: as for B1
B3: Phage-606 (peptide)
peptide: YCAGHLPEYFLKCL
notes: as for B1
B4: Phage-609 (peptide)
peptide: YCDGHLPEYIEKCL
notes: as for B1
B5: Phage-608 (peptide)
peptide: YCDGHLPEYMHKCL
notes: as for B1
B6: Phage-611 (peptide)
peptide: YCDGHAVEYMAKCL
notes: as for B1
B7: Phage-607 (peptide)
peptide: YCDGHSPLYIWKCL
notes: as for B1
B8: Phage-613 (peptide)
peptide: YCEGHAEEYMQKCL
notes: as for B1
B9: Phage-605 (peptide)
peptide: YCDGHLPEYLSKCL
notes: as for B1
B10: Phage-576 (peptide)
peptide: YCDGHLSEYMEKCL
modifications: cysteine pairing not given here; also: displayed on phage by fusion to pIII, pIII and linker sequence not given here
B11: Phage-575 (peptide)
peptide: YCEGHLPMYMEKCL
modifications: cysteine pairing not given here; also: displayed on phage by fusion to pIII, pIII and linker sequence not given here
B12: Phage-574 (peptide)
peptide: YCDGHLPEYLWKCL
modifications: cysteine pairing not given here; also: displayed on phage by fusion to pIII, pIII and linker sequence not given here
B13: Phage-573 (peptide)
peptide: YCEGHSQEYMSKCL
modifications: cysteine pairing not given here; also: displayed on phage by fusion to pIII, pIII and linker sequence not given here
B14: Phage-578 (peptide)
peptide: YCEGHSPEYMEKCL
modifications: cysteine pairing not given here; also: displayed on phage by fusion to pIII, pIII and linker sequence not given here
B15: Phage-577 (peptide)
peptide: YCEGHSPLYMWKCL
modifications: cysteine pairing not given here; also: displayed on phage by fusion to pIII, pIII and linker sequence not given here

Molecular target: T1, Anti-CD28 Fab (SEQ ID NOs: 696, 697)
T1 construct: In the phage ELISA the Fab was biotinylated and captured on neutravidin coated plates
Assay: phage ELISA; plate-bound anti-CD28 Fab pre-incubated with CD28 antigen as competitor, anti-M13 HRP detection
T1 sequence (VH, as listed by the source, chain 1 of 2): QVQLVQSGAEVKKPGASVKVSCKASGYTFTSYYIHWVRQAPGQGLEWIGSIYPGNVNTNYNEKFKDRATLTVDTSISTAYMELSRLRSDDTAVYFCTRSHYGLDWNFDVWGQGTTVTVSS
T1 sequence (VL, as listed by the source, chain 2 of 2): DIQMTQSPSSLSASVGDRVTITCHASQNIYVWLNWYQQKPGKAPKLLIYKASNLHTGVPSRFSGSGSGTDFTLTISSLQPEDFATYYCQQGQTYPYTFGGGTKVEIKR
Method: (§1) After panning, phage infected bacteria were plated out and colonies picked into 96 well blocks. Clonal phage was then amplified and separated from bacterial cells via centrifugation.
(§2) Clonal phage were harvested as crude supematants and screened via standard ELISAs. […] Prior to the addition of clonal phage, wells were incubated with blocking buffer and CD28 antigen or blocking buffer alone. Without washing or aspirating, clonal phage supematants were then added to the wells and incubated for a short time. Wells were then washed followed by detection of bound phage using a horse radish conjugated anti-M13 antibody. Clonal phage of interest were then sent for sequence analysis.

Binder	Phage binding ELISA, Anti-CD28 Fab signal in the presence of CD28
YCEGHLPQYMKKCL (Tested as clonal phage supernatant) [Phage-595]	0.1
YCEGHSPQYMWKCL (Tested as clonal phage supernatant) [Phage-593]	0.12
YCDGHIEEYRAKCL (Tested as clonal phage supernatant) [Phage-596]	0.07
YCDGHAPEYMEKCM (Tested as clonal phage supernatant) [Phage-598]	0.07
YCDGHLPEYLPKCL (Tested as clonal phage supernatant) [Phage-603]	0.09
YCEGHAAEYMTKCL (Tested as clonal phage supernatant) [Phage-594]	0.08
YCEGHTVEYMAKCL (Tested as clonal phage supernatant) [Phage-599]	0.08
YCDGHRGEYLQKCL (Tested as clonal phage supernatant) [Phage-592]	0.09
YCDGHMPEYIAKCL (Tested as clonal phage supernatant) [Phage-604]	0.08
YCDGHAPEYMLKCL (Tested as clonal phage supernatant) [Phage-601]	0.07
YCEGHAPEYMLKCL (Tested as clonal phage supernatant) [Phage-597]	0.07
YCDGHAPDYMLKCL (Tested as clonal phage supernatant) [Phage-602]	0.09
YCDGHKAEYMDKCL (Tested as clonal phage supernatant) [Phage-600]	0.07

Molecular target: T2, Anti-CD28 Fab (SEQ ID NOs: 696, 697)
T2 construct: In the phage ELISA the Fab was biotinylated and captured on neutravidin coated plates
Assay: phage ELISA; captured anti-CD28 Fab pre-incubated with CD28 antigen as competitor, anti-M13 HRP;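 also: crude clonal phage supernatants added without washing after CD28 pre-incubation, bound phage detected with HRP anti-M13 antibody, reference wells got blocking buffer lacking CD28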
T2 sequence (VH, as listed by the source, chain 1 of 2): as the sequence (VH, as listed by the source, chain 1 of 2) above
T2 sequence (VL, as listed by the source, chain 2 of 2): as the sequence (VL, as listed by the source, chain 2 of 2) above

Binder	Anti-CD28 Fab signal in the presence of CD28 (phage binding ELISA)
B1	0.09
B2	0.06
B3	0.08
B4	0.07
B5	0.09
B6	0.1
B7	0.09
B8	0.06
B9	0.07

Molecular target: T1, Anti-CD28 Fab (SEQ ID NOs: 696, 697)
Assay: phage ELISA; biotinylated anti-CD28 Fab on neutravidin plate, clonal phage supernatant, anti-M13 HRP detection;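 also: crude supernatants of single phage clones picked after panning were screened for binding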

Binder	Phage binding ELISA, Anti-CD28 Fab signal
YCEGHLPQYMKKCL (Tested as clonal phage supernatant) [Phage-595]	2.22
YCEGHSPQYMWKCL (Tested as clonal phage supernatant) [Phage-593]	2.22
YCDGHIEEYRAKCL (Tested as clonal phage supernatant) [Phage-596]	2.21
YCDGHAPEYMEKCM (Tested as clonal phage supernatant) [Phage-598]	2.21
YCDGHLPEYLPKCL (Tested as clonal phage supernatant) [Phage-603]	2.19
YCEGHAAEYMTKCL (Tested as clonal phage supernatant) [Phage-594]	2.22
YCEGHTVEYMAKCL (Tested as clonal phage supernatant) [Phage-599]	2.2
YCDGHRGEYLQKCL (Tested as clonal phage supernatant) [Phage-592]	2.22
YCDGHMPEYIAKCL (Tested as clonal phage supernatant) [Phage-604]	2.19
YCDGHAPEYMLKCL (Tested as clonal phage supernatant) [Phage-601]	2.2
YCEGHAPEYMLKCL (Tested as clonal phage supernatant) [Phage-597]	2.21
YCDGHAPDYMLKCL (Tested as clonal phage supernatant) [Phage-602]	2.2
YCDGHKAEYMDKCL (Tested as clonal phage supernatant) [Phage-600]	2.2

Molecular target: Anti-CD28 Fab (SEQ ID NOs: 696, 697)
Assay: phage binding ELISA; captured anti-CD28 Fab pre-incubated with CD28 antigen as competitor, anti-M13 HRP
Target sequence in this assay (VH, as listed by the source, chain 1 of 2): as the sequence (VH, as listed by the source, chain 1 of 2) above
Target sequence in this assay (VL, as listed by the source, chain 2 of 2): as the sequence (VL, as listed by the source, chain 2 of 2) above
Method: as §1, §2

Binder	Anti-CD28 Fab signal in the presence of CD28
YCAGHLPEYMEKCL [Phage-579]	0.12
YCEGHSPEYMYKCL [Phage-589]	0.1
YCDGHLPQYMNKCL [Phage-585]	0.1
YCQGHLPEYMNKCL [Phage-581]	0.08
YCEGHAPMYMWKCL [Phage-586]	0.08
YCQGHLPIYMEKCL [Phage-583]	0.09
YCDGHSMEYMSKCL [Phage-590]	0.09
YCEGHAWEYMAKCL [Phage-580]	0.07
YCDGHLPLYLAKCL [Phage-584]	0.09
YCDGHSQEYMAKCL [Phage-582]	0.08
YCDGHSAEYMAKCL [Phage-588]	0.07
YCEGHLPMYMDKCL [Phage-591]	0.07
YCEGHLPEYMQKCM [Phage-587]	0.08

Molecular target: Anti-CD28 Fab (SEQ ID NOs: 696, 697)
Assay: phage binding ELISA; biotinylated anti-CD28 Fab on neutravidin plate, clonal phage supernatant, anti-M13 HRP;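 also: crude clonal phage supernatants screened after wells were preincubated either with CD28 antigen in blocking buffer or with blocking buffer only, phage added without washing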
Target sequence in this assay (VH, as listed by the source, chain 1 of 2): as the sequence (VH, as listed by the source, chain 1 of 2) above
Target sequence in this assay (VL, as listed by the source, chain 2 of 2): as the sequence (VL, as listed by the source, chain 2 of 2) above
Method: as §1, §2

Binder	Anti-CD28 Fab (SEQ ID NOs: 696, 697) signal
YCAGHLPEYMEKCL [Phage-579]	2.24
YCEGHSPEYMYKCL [Phage-589]	2.23
YCDGHLPQYMNKCL [Phage-585]	2.23
YCQGHLPEYMNKCL [Phage-581]	2.24
YCEGHAPMYMWKCL [Phage-586]	2.23
YCQGHLPIYMEKCL [Phage-583]	2.24
YCDGHSMEYMSKCL [Phage-590]	2.22
YCEGHAWEYMAKCL [Phage-580]	2.24
YCDGHLPLYLAKCL [Phage-584]	2.23
YCDGHSQEYMAKCL [Phage-582]	2.24
YCDGHSAEYMAKCL [Phage-588]	2.23
YCEGHLPMYMDKCL [Phage-591]	2.22
YCEGHLPEYMQKCM [Phage-587]	2.23

Molecular target: T3, Anti-CD28 Fab (SEQ ID NOs: 696, 697)
T3 construct: In the phage ELISA the Fab was biotinylated and captured on neutravidin coated plates
Assay: phage binding ELISA; biotinylated anti-CD28 Fab on neutravidin plate, bound phage detected with anti-M13 HRP;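 also: crude supernatants of clonal phage screened, wells pretreated with blocking buffer with or without CD28 antigen before brief phage incubation, washed, then bound phage detected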
T3 sequence (VH, as listed by the source, chain 1 of 2): as the sequence (VH, as listed by the source, chain 1 of 2) above
T3 sequence (VL, as listed by the source, chain 2 of 2): as the sequence (VL, as listed by the source, chain 2 of 2) above
Method: as §1, §2

Binder	Anti-CD28 Fab signal
B10	2.25
B11	2.25
B12	2.26
B13	2.26
B14	2.24
B15	2.25

Molecular target: T2, Anti-CD28 Fab (SEQ ID NOs: 696, 697)
Assay: phage ELISA; biotinylated anti-CD28 Fab on neutravidin plate, clonal phage supernatant, anti-M13 HRP
Method: as §1, §2

Binder	Anti-CD28 Fab signal (phage binding ELISA)
B1	2.19
B2	2.18
B3	2.19
B4	2.19
B5	2.19
B6	2.18
B7	2.19
B8	2.18
B9	2.19

Molecular target: T3, Anti-CD28 Fab (SEQ ID NOs: 696, 697)
Assay: phage binding ELISA on captured anti-CD28 Fab; competitor: CD28 antigen
Method: as §1, §2

Binder	Anti-CD28 Fab signal in the presence of CD28
B10	0.08
B11	0.1
B12	0.13
B13	0.07
B14	0.07
B15	0.06
